The text below walks through data of publication PMC6183340 (2018).

The target of assay [1] is T1, WT1 (natural WT1 235 peptide, nWT1 235) peptide on HLA-A*24:02 (human).
T1 peptide: CMTWNQMNL
In words: NFAT-GFP reporter; TCR-transduced 2D3 cells, T2-2402 and titrated nWT1 235 peptide; full-length, on cells.

In assay [2] the target is T2, WT1 (modified WT1 235 peptide, mWT1 235) peptide on HLA-A*24:02 (human).
T2 peptide: CYTWNQMNL
In words: NFAT-GFP reporter; TCR-transduced 2D3 cells, T2-2402 and titrated mWT1 235 peptide; full-length, on cells.

B1: TM-H2-TCR (TCR)
alpha TRAV20*02 TRAJ52*01 CDR3: CAVRGGRAGGTSYGKLTF
beta TRBV9*01 TRBJ2-3*01 CDR3: CASSVFGSSTDTQYF
On to B1, for which the EC50 of peptide in assay [1] turned out to be 180 nM; in assay [2] it was 29.3 nM.

B2: FSK1-TCR (TCR)
alpha TRAV19*01 TRAJ26*01 CDR3: CALSAAYGQNFVF
beta TRBV6-5*01 TRBJ2-1*01 CDR3: CASSYGKGLYNEQFF
B2 gave an EC50 of peptide in assay [2] of 976 nM.

B3: TM-L1-TCR (TCR)
alpha TRAV17*01 TRAJ43*01 CDR3: CATDPGYNNDMRF
beta TRBV20-1*01 TRBJ2-2*01 CDR3: CSARGQRELSGELFF
Regarding B3, the EC50 of peptide in assay [2] is 1780 nM.
